Data on 7 molecules can be found in patent US20180009871A1 (INTARCIA THERAPEUTICS, published 2018).

B1: Compound A53 (peptide)
peptide: YSHGTFTSDYSKYLD[Aib]KRAQEFVLWLEDEPSSGAPPPS-OH
modifications: N-terminus assumed
SMILES: CC(C)C[C@H](NC(=O)[C@H](Cc1c[nH]c2ccccc12)NC(=O)[C@H](CC(C)C)NC(=O)[C@@H](NC(=O)[C@H](Cc1ccccc1)NC(=O)[C@H](CCC(=O)O)NC(=O)[C@H](CCC(N)=O)NC(=O)[C@H](C)NC(=O)[C@H](CCCNC(=N)N)NC(=O)[C@H](CCCCN)NC(=O)C(C)(C)NC(=O)[C@H](CC(=O)O)NC(=O)[C@H](CC(C)C)NC(=O)[C@H](Cc1ccc(O)cc1)NC(=O)[C@H](CCCCN)NC(=O)[C@H](CO)NC(=O)[C@H](Cc1ccc(O)cc1)NC(=O)[C@H](CC(=O)O)NC(=O)[C@H](CO)NC(=O)[C@@H](NC(=O)[C@H](Cc1ccccc1)NC(=O)[C@@H](NC(=O)CNC(=O)[C@H](Cc1c[nH]cn1)NC(=O)[C@H](CO)NC(=O)[C@@H](N)Cc1ccc(O)cc1)[C@@H](C)O)[C@@H](C)O)C(C)C)C(=O)N[C@@H](CCC(=O)O)C(=O)N[C@@H](CC(=O)O)C(=O)N[C@@H](CCC(=O)O)C(=O)N1CCC[C@H]1C(=O)N[C@@H](CO)C(=O)N[C@@H](CO)C(=O)NCC(=O)N[C@@H](C)C(=O)N1CCC[C@H]1C(=O)N1CCC[C@H]1C(=O)N1CCC[C@H]1C(=O)N[C@@H](CO)C(=O)O
B2: Compound A54 (peptide)
peptide: YSHGTFTSDYSKYLD[Aib]KRAQEFV[Aib]WLEDEPSSKEPPPS-OH
modifications: N-terminus assumed
SMILES: CC(C)C[C@H](NC(=O)[C@H](Cc1ccc(O)cc1)NC(=O)[C@H](CCCCN)NC(=O)[C@H](CO)NC(=O)[C@H](Cc1ccc(O)cc1)NC(=O)[C@H](CC(=O)O)NC(=O)[C@H](CO)NC(=O)[C@@H](NC(=O)[C@H](Cc1ccccc1)NC(=O)[C@@H](NC(=O)CNC(=O)[C@H](Cc1c[nH]cn1)NC(=O)[C@H](CO)NC(=O)[C@@H](N)Cc1ccc(O)cc1)[C@@H](C)O)[C@@H](C)O)C(=O)N[C@@H](CC(=O)O)C(=O)NC(C)(C)C(=O)N[C@@H](CCCCN)C(=O)N[C@@H](CCCNC(=N)N)C(=O)N[C@@H](C)C(=O)N[C@@H](CCC(N)=O)C(=O)N[C@@H](CCC(=O)O)C(=O)N[C@@H](Cc1ccccc1)C(=O)N[C@H](C(=O)NC(C)(C)C(=O)N[C@@H](Cc1c[nH]c2ccccc12)C(=O)N[C@@H](CC(C)C)C(=O)N[C@@H](CCC(=O)O)C(=O)N[C@@H](CC(=O)O)C(=O)N[C@@H](CCC(=O)O)C(=O)N1CCC[C@H]1C(=O)N[C@@H](CO)C(=O)N[C@@H](CO)C(=O)N[C@@H](CCCCN)C(=O)N[C@@H](CCC(=O)O)C(=O)N1CCC[C@H]1C(=O)N1CCC[C@H]1C(=O)N1CCC[C@H]1C(=O)N[C@@H](CO)C(=O)O)C(C)C
B3: Compound A50 (peptide)
peptide: YSHGTFTSDYSKYLD[Aib]KRAQEFV[Aib]WLEDEKRNKPPPS-OH
modifications: N-terminus assumed
SMILES: CC(C)C[C@H](NC(=O)[C@H](Cc1ccc(O)cc1)NC(=O)[C@H](CCCCN)NC(=O)[C@H](CO)NC(=O)[C@H](Cc1ccc(O)cc1)NC(=O)[C@H](CC(=O)O)NC(=O)[C@H](CO)NC(=O)[C@@H](NC(=O)[C@H](Cc1ccccc1)NC(=O)[C@@H](NC(=O)CNC(=O)[C@H](Cc1c[nH]cn1)NC(=O)[C@H](CO)NC(=O)[C@@H](N)Cc1ccc(O)cc1)[C@@H](C)O)[C@@H](C)O)C(=O)N[C@@H](CC(=O)O)C(=O)NC(C)(C)C(=O)N[C@@H](CCCCN)C(=O)N[C@@H](CCCNC(=N)N)C(=O)N[C@@H](C)C(=O)N[C@@H](CCC(N)=O)C(=O)N[C@@H](CCC(=O)O)C(=O)N[C@@H](Cc1ccccc1)C(=O)N[C@H](C(=O)NC(C)(C)C(=O)N[C@@H](Cc1c[nH]c2ccccc12)C(=O)N[C@@H](CC(C)C)C(=O)N[C@@H](CCC(=O)O)C(=O)N[C@@H](CC(=O)O)C(=O)N[C@@H](CCC(=O)O)C(=O)N[C@@H](CCCCN)C(=O)N[C@@H](CCCNC(=N)N)C(=O)N[C@@H](CC(N)=O)C(=O)N[C@@H](CCCCN)C(=O)N1CCC[C@H]1C(=O)N1CCC[C@H]1C(=O)N1CCC[C@H]1C(=O)N[C@@H](CO)C(=O)O)C(C)C
B4: Compound A49 (peptide)
peptide: YSHGTFTSDYSKYLD[Aib]KRAQEFV[Aib]WLEDEPRNKNNPPS-OH
modifications: N-terminus assumed
SMILES: CC(C)C[C@H](NC(=O)[C@H](Cc1ccc(O)cc1)NC(=O)[C@H](CCCCN)NC(=O)[C@H](CO)NC(=O)[C@H](Cc1ccc(O)cc1)NC(=O)[C@H](CC(=O)O)NC(=O)[C@H](CO)NC(=O)[C@@H](NC(=O)[C@H](Cc1ccccc1)NC(=O)[C@@H](NC(=O)CNC(=O)[C@H](Cc1c[nH]cn1)NC(=O)[C@H](CO)NC(=O)[C@@H](N)Cc1ccc(O)cc1)[C@@H](C)O)[C@@H](C)O)C(=O)N[C@@H](CC(=O)O)C(=O)NC(C)(C)C(=O)N[C@@H](CCCCN)C(=O)N[C@@H](CCCNC(=N)N)C(=O)N[C@@H](C)C(=O)N[C@@H](CCC(N)=O)C(=O)N[C@@H](CCC(=O)O)C(=O)N[C@@H](Cc1ccccc1)C(=O)N[C@H](C(=O)NC(C)(C)C(=O)N[C@@H](Cc1c[nH]c2ccccc12)C(=O)N[C@@H](CC(C)C)C(=O)N[C@@H](CCC(=O)O)C(=O)N[C@@H](CC(=O)O)C(=O)N[C@@H](CCC(=O)O)C(=O)N1CCC[C@H]1C(=O)N[C@@H](CCCNC(=N)N)C(=O)N[C@@H](CC(N)=O)C(=O)N[C@@H](CCCCN)C(=O)N[C@@H](CC(N)=O)C(=O)N[C@@H](CC(N)=O)C(=O)N1CCC[C@H]1C(=O)N1CCC[C@H]1C(=O)N[C@@H](CO)C(=O)O)C(C)C
B5: Compound A48 (peptide)
peptide: YSHGTFTSDYSKYLD[Aib]KRAQEFV[Aib]WLEDEKRNKNPPPS-OH
modifications: N-terminus assumed
SMILES: CC(C)C[C@H](NC(=O)[C@H](Cc1ccc(O)cc1)NC(=O)[C@H](CCCCN)NC(=O)[C@H](CO)NC(=O)[C@H](Cc1ccc(O)cc1)NC(=O)[C@H](CC(=O)O)NC(=O)[C@H](CO)NC(=O)[C@@H](NC(=O)[C@H](Cc1ccccc1)NC(=O)[C@@H](NC(=O)CNC(=O)[C@H](Cc1c[nH]cn1)NC(=O)[C@H](CO)NC(=O)[C@@H](N)Cc1ccc(O)cc1)[C@@H](C)O)[C@@H](C)O)C(=O)N[C@@H](CC(=O)O)C(=O)NC(C)(C)C(=O)N[C@@H](CCCCN)C(=O)N[C@@H](CCCNC(=N)N)C(=O)N[C@@H](C)C(=O)N[C@@H](CCC(N)=O)C(=O)N[C@@H](CCC(=O)O)C(=O)N[C@@H](Cc1ccccc1)C(=O)N[C@H](C(=O)NC(C)(C)C(=O)N[C@@H](Cc1c[nH]c2ccccc12)C(=O)N[C@@H](CC(C)C)C(=O)N[C@@H](CCC(=O)O)C(=O)N[C@@H](CC(=O)O)C(=O)N[C@@H](CCC(=O)O)C(=O)N[C@@H](CCCCN)C(=O)N[C@@H](CCCNC(=N)N)C(=O)N[C@@H](CC(N)=O)C(=O)N[C@@H](CCCCN)C(=O)N[C@@H](CC(N)=O)C(=O)N1CCC[C@H]1C(=O)N1CCC[C@H]1C(=O)N1CCC[C@H]1C(=O)N[C@@H](CO)C(=O)O)C(C)C
B6: Compound A51 (peptide)
peptide: YSHGTFTSDYSKYLDLKRAQEFV[Aib]WLEDEPSSGAPPPS-OH
modifications: N-terminus assumed
SMILES: CC(C)C[C@H](NC(=O)[C@H](CC(=O)O)NC(=O)[C@H](CC(C)C)NC(=O)[C@H](Cc1ccc(O)cc1)NC(=O)[C@H](CCCCN)NC(=O)[C@H](CO)NC(=O)[C@H](Cc1ccc(O)cc1)NC(=O)[C@H](CC(=O)O)NC(=O)[C@H](CO)NC(=O)[C@@H](NC(=O)[C@H](Cc1ccccc1)NC(=O)[C@@H](NC(=O)CNC(=O)[C@H](Cc1c[nH]cn1)NC(=O)[C@H](CO)NC(=O)[C@@H](N)Cc1ccc(O)cc1)[C@@H](C)O)[C@@H](C)O)C(=O)N[C@@H](CCCCN)C(=O)N[C@@H](CCCNC(=N)N)C(=O)N[C@@H](C)C(=O)N[C@@H](CCC(N)=O)C(=O)N[C@@H](CCC(=O)O)C(=O)N[C@@H](Cc1ccccc1)C(=O)N[C@H](C(=O)NC(C)(C)C(=O)N[C@@H](Cc1c[nH]c2ccccc12)C(=O)N[C@@H](CC(C)C)C(=O)N[C@@H](CCC(=O)O)C(=O)N[C@@H](CC(=O)O)C(=O)N[C@@H](CCC(=O)O)C(=O)N1CCC[C@H]1C(=O)N[C@@H](CO)C(=O)N[C@@H](CO)C(=O)NCC(=O)N[C@@H](C)C(=O)N1CCC[C@H]1C(=O)N1CCC[C@H]1C(=O)N1CCC[C@H]1C(=O)N[C@@H](CO)C(=O)O)C(C)C
B7: Compound A52 (peptide)
peptide: YSHGTFTSDYSKYLDIKRAQEFV[Aib]WLEDEPSSGAPPPS-OH
modifications: N-terminus assumed
SMILES: CC[C@H](C)[C@H](NC(=O)[C@H](CC(=O)O)NC(=O)[C@H](CC(C)C)NC(=O)[C@H](Cc1ccc(O)cc1)NC(=O)[C@H](CCCCN)NC(=O)[C@H](CO)NC(=O)[C@H](Cc1ccc(O)cc1)NC(=O)[C@H](CC(=O)O)NC(=O)[C@H](CO)NC(=O)[C@@H](NC(=O)[C@H](Cc1ccccc1)NC(=O)[C@@H](NC(=O)CNC(=O)[C@H](Cc1c[nH]cn1)NC(=O)[C@H](CO)NC(=O)[C@@H](N)Cc1ccc(O)cc1)[C@@H](C)O)[C@@H](C)O)C(=O)N[C@@H](CCCCN)C(=O)N[C@@H](CCCNC(=N)N)C(=O)N[C@@H](C)C(=O)N[C@@H](CCC(N)=O)C(=O)N[C@@H](CCC(=O)O)C(=O)N[C@@H](Cc1ccccc1)C(=O)N[C@H](C(=O)NC(C)(C)C(=O)N[C@@H](Cc1c[nH]c2ccccc12)C(=O)N[C@@H](CC(C)C)C(=O)N[C@@H](CCC(=O)O)C(=O)N[C@@H](CC(=O)O)C(=O)N[C@@H](CCC(=O)O)C(=O)N1CCC[C@H]1C(=O)N[C@@H](CO)C(=O)N[C@@H](CO)C(=O)NCC(=O)N[C@@H](C)C(=O)N1CCC[C@H]1C(=O)N1CCC[C@H]1C(=O)N1CCC[C@H]1C(=O)N[C@@H](CO)C(=O)O)C(C)C

Where no end group is shown, it is not given here. [ ]: non-standard residue; d: D form. Aib = CC(C)(N)C(=O)O Where only a bound is given, the exact number is not on record here.

For the first assay, the target named is human glucagon receptor (GCGR) (human, UniProt P47871 26-477). The assay can be described thus: cell-based or functional assay.
For the molecule B1, the “hGCGR pEC50 (cAMP)” value came to 11.6 pEC50.

For the molecule B2, the “hGCGR pEC50 (cAMP)” value stood at 12.4 pEC50.

On to B3, for which the “hGCGR pEC50 (cAMP)” value is 11.5 pEC50.

Consider B4, for which the “hGCGR pEC50 (cAMP)” value worked out at 12.4 pEC50.

Turning to B5, the “hGCGR pEC50 (cAMP)” value came out at 12.9 pEC50.

In the case of B6, the “hGCGR pEC50 (cAMP)” value is 12.3 pEC50.

With B7, the “hGCGR pEC50 (cAMP)” value was 12.4 pEC50.

The target in the next assay is human GLP-1 receptor (GLP-1R) (human, UniProt P43220 24-463). The assay can be described thus: cell-based or functional assay.
Sequence of human GLP-1 receptor (GLP-1R) (P43220 24-463): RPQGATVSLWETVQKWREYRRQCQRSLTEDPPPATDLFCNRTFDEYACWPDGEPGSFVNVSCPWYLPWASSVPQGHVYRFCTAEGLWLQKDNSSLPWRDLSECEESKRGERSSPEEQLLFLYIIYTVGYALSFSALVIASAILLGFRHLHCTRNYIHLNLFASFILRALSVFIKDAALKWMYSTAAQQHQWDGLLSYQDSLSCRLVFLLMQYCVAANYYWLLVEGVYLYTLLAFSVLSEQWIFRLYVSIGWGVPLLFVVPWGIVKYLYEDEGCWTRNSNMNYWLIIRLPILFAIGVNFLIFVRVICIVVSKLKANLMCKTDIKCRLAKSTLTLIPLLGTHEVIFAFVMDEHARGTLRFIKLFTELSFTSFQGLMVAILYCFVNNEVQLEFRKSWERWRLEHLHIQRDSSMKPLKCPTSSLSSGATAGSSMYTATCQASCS
Consider B1, for which the “hGLP1 pEC50 (cAMP)” value was less than 9 pEC50.

Turning to B2, the “hGLP1 pEC50 (cAMP)” value is less than 9 pEC50.

B3: the “hGLP1 pEC50 (cAMP)” value is less than 9 pEC50.

On to B4, for which the “hGLP1 pEC50 (cAMP)” value is less than 9 pEC50.

As for B5, the “hGLP1 pEC50 (cAMP)” value is less than 9 pEC50.

Regarding B6, the “hGLP1 pEC50 (cAMP)” value was less than 9 pEC50.

On to B7, for which the “hGLP1 pEC50 (cAMP)” value is less than 9 pEC50.
